Source: article PMC11065421, “An RNA-dependent and phase-separated active subnuclear compartment safeguards repressive chromatin domains” (Molecular Cell, 2024)
Several values for one entry are separate records, joined by “and”; a condition that tells them apart may be missing. Equal values may be shown once.

Target: the molecule itself
Test: SEC; Superose 6 Increase 3.2/300; freshly purified recombinant protein concentrated up to 1 mg/ml; absorbance at 280 nm

B1: recombinant BAZ2AN (domain or fragment, UniProt Q91YE5 1-744, looked up)
chain: MEMEANDHFNFTGLPPAPAASGLKPSPSSGEGLYTNGSPMNFPQQGKSLNGDVNVNGLSTVSHTTTSGILNSAPHSSSTSHLHHPNVAYDCLWNYSQYPSANPGNNLKDPPLLSQFPGGQYPLNGILGGNRQPSSPSHNTNLRAGSQEFWANGTQSPMGLNFDSQELYDSFPDQNFEVMPNGPPSFFTSPQTSPMLGSSIQTFAPSQDVSSDIHPDEAAEKELTSVVAENGTGLVGSLELEEEQPELKMCGYNGSVSSVESLHQEVSVLVPDPTVSCLDDPSHLPDQLEDTPILSEDSLEPFDSLAAEPVSGSLYGIDDAELMGAEDKLPLEGNPVISALDCPALSNANAFSLLADDSQTSASIFVSPTSPPVLGESVLQDNSFGLNSCSDSEQEEIETQSSNFQRPLTEPAPDQPPSTQLHPAVSPTASPAASLTASAEISPAVSPVASSPVPPEVFVAVSPASSPALPAISLEASMTTPVTSPQGSPEPSPAAAFQTVSPARKNVSSAPKARADREETTGGAVAVSGSGDVLKRRIATPEEVRLPLQHGWRREVRIKKGSHRWQGETWYYGPCGKRMKQFPEVIKYLSRNVVHSVRREHFSFSPRMPVGDFFEERDTPEGLQWVQLSAEEIPSRIQAITGKRGRPRNNEKAKNKEVPKVKRGRGRPPKIKMPELLNKTDNRLPKKLETQEILSEDDKAKMTKNKKKMRQKVQRGESQTPVQGQARNKRKQDTKSLKQKDTKK
notes: BAZ2A (TIP5) N-terminal region, aa 1-744; also called BAZ2AN-Hist; source: E. coli BL21(DE3), purified (Glutathione Sepharose, PreScission cleavage, HisTrap)
- stoichiometry N: 4 units and 6 units
